Mean Fluorescent Intensity data for 1 substance are collected here from US20180094075A1 (Pfizer, published 2018).

For experiment [1], the target named is human PTK7 expressed on cells (cancer cell lines with endogenous PTK7; HEK293T-PTK7 over-expressing cells) (human) (UniProt Q13308). The experiment in a line: flow cytometry, H1048 cells, 10 µg/ml Ab.
For experiment [2] the target is unchanged. The experiment in a line: flow cytometry, K562 cells, 10 µg/ml Ab. For orientation: Flow cytometry measures light scatter and fluorescence of single cells or particles in a stream.
For experiment [3] the target is unchanged. The experiment in a line: flow cytometry, Kasumi-1 cells, 10 µg/ml Ab.
The target is the same in experiment [4]. Nature of the experiment: flow cytometry, DU4475 cells, 10 µg/ml Ab.
For experiment [5] the target is unchanged. The experiment in a line: flow cytometry, KG1 cells, 10 µg/ml Ab.
Experiment [6] has the same target. The experiment in a line: flow cytometry, DMS114 cells, 10 µg/ml Ab.
For experiment [7] the target is unchanged. The experiment in a line: flow cytometry, RPMI8226 cells, 10 µg/ml Ab.
Experiment [8] shares this target. Nature of the experiment: flow cytometry, HCT116 cells, 10 µg/ml Ab.
Experiment [9] shares this target. The experiment in a line: flow cytometry, DMS79 cells, 10 µg/ml Ab.
For experiment [10] the target is unchanged. Nature of the experiment: flow cytometry, H520 cells, 10 µg/ml Ab.
For experiment [11] the target is unchanged. The experiment in a line: flow cytometry, ASPC1 cells (negligible PTK7 expression by immunoblot), 10 µg/ml Ab.
The target is the same in experiment [12]. The experiment in a line: flow cytometry, H596 cells, 10 µg/ml Ab.
Experiment [13] shares this target. The experiment in a line: flow cytometry, H2110 cells, 10 µg/ml Ab.
Experiment [14] has the same target. Nature of the experiment: flow cytometry, HCC827 cells, 10 µg/ml Ab.
Experiment [15] has the same target. The experiment in a line: flow cytometry, MV411 cells, 10 µg/ml Ab.
For experiment [16] the target is unchanged. Nature of the experiment: flow cytometry, Hs578T cells, 10 µg/ml Ab.
Experiment [17] has the same target. Nature of the experiment: flow cytometry, RL cells, 10 µg/ml Ab.
The target is the same in experiment [18]. Nature of the experiment: flow cytometry, MDAMB361-DYT2 cells, 10 µg/ml Ab.
Experiment [19] shares this target. Nature of the experiment: flow cytometry, MDAMB436 cells, 10 µg/ml Ab.
The target is the same in experiment [20]. Nature of the experiment: flow cytometry, HEL cells, 10 µg/ml Ab.

human PTK7 expressed on cells (cancer cell lines with endogenous PTK7; HEK293T-PTK7 over-expressing cells) (human), sequence (Q13308 31-1070 L93P limits assumed): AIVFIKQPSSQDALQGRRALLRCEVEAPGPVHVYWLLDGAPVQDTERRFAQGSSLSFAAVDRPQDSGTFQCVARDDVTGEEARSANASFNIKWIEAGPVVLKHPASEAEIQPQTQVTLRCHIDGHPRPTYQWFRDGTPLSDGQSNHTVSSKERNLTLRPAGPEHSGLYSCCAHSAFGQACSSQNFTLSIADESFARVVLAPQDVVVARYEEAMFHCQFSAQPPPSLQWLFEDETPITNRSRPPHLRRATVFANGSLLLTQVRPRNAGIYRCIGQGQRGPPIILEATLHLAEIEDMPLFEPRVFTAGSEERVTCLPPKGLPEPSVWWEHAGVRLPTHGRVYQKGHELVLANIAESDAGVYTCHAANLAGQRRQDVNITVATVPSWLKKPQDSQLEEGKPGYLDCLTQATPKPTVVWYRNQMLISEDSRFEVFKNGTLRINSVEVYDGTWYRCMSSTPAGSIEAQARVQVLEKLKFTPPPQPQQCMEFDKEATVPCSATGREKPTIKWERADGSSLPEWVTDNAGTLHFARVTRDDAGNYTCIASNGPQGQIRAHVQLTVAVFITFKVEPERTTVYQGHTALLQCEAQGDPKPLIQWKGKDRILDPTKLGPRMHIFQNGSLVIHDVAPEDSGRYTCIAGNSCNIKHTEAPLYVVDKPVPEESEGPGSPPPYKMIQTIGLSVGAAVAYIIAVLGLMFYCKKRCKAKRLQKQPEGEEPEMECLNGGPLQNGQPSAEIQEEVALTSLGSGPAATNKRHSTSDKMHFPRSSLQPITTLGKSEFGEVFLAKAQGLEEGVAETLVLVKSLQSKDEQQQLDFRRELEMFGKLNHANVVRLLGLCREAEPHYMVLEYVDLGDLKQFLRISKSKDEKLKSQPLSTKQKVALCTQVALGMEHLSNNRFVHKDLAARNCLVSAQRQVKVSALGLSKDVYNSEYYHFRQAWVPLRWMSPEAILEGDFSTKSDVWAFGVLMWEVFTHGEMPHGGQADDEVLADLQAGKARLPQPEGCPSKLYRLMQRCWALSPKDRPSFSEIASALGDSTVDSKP

With “Negative Control Ab (Table 8) (antibody)”, the Mean Fluorescent Intensity turned out to be 4.4 in [1]; 54.7 in experiment [2]; 5.3 in [3]; 3.8 in experiment [4]; 5.2 in [5]; 9.9 in experiment [6]. Further, the Mean Fluorescent Intensity worked out at 8.3 in experiment [7]; 17.8 in experiment [8]; 8.5 in experiment [9]; 4.8 in experiment [10]; 2.6 in [11]; 21.4 in experiment [12]. For the same substance, the Mean Fluorescent Intensity in experiment [13] was found to be 4.9; in [14], 5.8; in experiment [15], 7.7; in [16], 2.7; in [17], 29.8; in [18], 8.7. Also, the Mean Fluorescent Intensity was found to be 3.5 in experiment [19] and 15.7 in experiment [20].
